The data set is described as follows: label from the status in PepcDB records.
As for “MRKDWGDGPGGLGTAMQDKILLIEDSVALSMLLRTRLSDETEAEVVHCASMAEADALMQANNFTLALTGLNLPDAPKGEILTLLSERKVPAIVFTATVDEEARKRYAEKKIIDYIVKDGHRTVDAVVKTVDRIMTNKRFSVLVVDDARTARSGLVEILERQNFKVSEAHSGNRALEILSQDPSIQLVITDYHMPDMDGYELTRRIRDSRSSEDLRVIGISSSTDRLLSASFLKAGASDFVYRPFVPEELQCRIDNNIETLKQLKRLRELAERDHLTGLPNRRSFFERTRALMDVINDNDESGAVAILDIDHFKKINDTLGHDAGDRALKKLAELLQGMCDEQRHIPARLGGEEFAVFLRGLDARAAYAFCEELREQVEKNGRQLSGSSLALTISLGVVEIEKGEPFDNQLNAADQLLYLAKANGRNRVYSDIMIQEGLQKIGLNG”, the protein production entry is reported as “failed”.

For “MKTYTLIATAPMGIEAIVAKEVRDLGYDCTVDNGKVVFEGDALAICRANLWLRTADRVKVQAAEFIAKTFDELFEKTKAIDWSAYLPEHASFPVTGKSVKSVLASVPDCQRIVKKAIAEKLKSEYQTQGEWLEETGPEYKIEVSLLKDKAVITLDSSGAGLHKRGYRTGQGEAPLKETLAAALILLTNWTPDRPFVDPFCGSGTIPIEAALIGQNIAPGFNRDFASERWEWIGKEVWDQARLEVEEKANYDQPLSISGYDLDHRMIEIAKANAEEAGLADFIEFKQMQVKDFRTKEEYGVIVGNPPYGERLGEKKAVEAMYKDMGKAFAELDTWSVYMLTSNERFEECYGKKATKKRKLFNGFIKTDYYQYWGKRPPKPNKEK”, the protein production result was “not failed”.

As for “MKKFSAIFGLLSVIFVIMAISQVSGLSGAITPPKIDIMVNASNGLPQDINSIIYVKNPNSFPVKVEMVTTGDLNNSKKVEVKIMKNNFTLKPGETVGVNITFTVKEKDNYEGDILTKISPVDYGDDKKGVNLKASVVLPTKVAIMVVGNEIHTKELVITAVLIISILGLGAMLIRRHL”, the protein production result is given as “failed”.

For the sequence “MSELILHHYPTSLFAEKARLMLGFKGVNWRSVTIPSIMPKPDLTALTGGYRKTPVLQIGADIYCDTALMARRLEQEKASPAFYPQGQEFAVAGLAAWADSVLFLHAVSLVFQPESMAVRFAKVPPDAAKAFIADRSMLFNGGTASRPPVEQVKHQWPTFMSRLESQLSHGGDFLFGAPSIADFSVAHTLWFLKQTPVTAPFVDDYPSVSVWLDRVLGFGHGSLSDLSSAAAIEIASNATPAPLPDETFIDPNGFKAGDKVAIAAVDYGVEAVEGELMFTGREELILRREDNRAGVVHVHFPRLGFRVEKR”, the protein production entry is reported as “not failed”.

As to “MTQLELLLERIIDRVNVNLRHQKFDVGDYVRRQTPHLHYSKFYAFYGLSADDPVHFHFKNSSLAGSYLLGRVNVLHSALYKSDIRGDELKRKGQHFVCDGKMIPLHDDEVITIKDSFLNKTLVHSNSHDPESPEEFTIRNTVAMPYANIHGSLTEGSFIGSFATVDLSTIHNSVVRYFSYVQTGELVGKCVEPGQIWIKSGDELEFHYSFDKAILDKYISQEAGSCPTGVLMEFVEVRQEDFEEVFASGHMASGAGSASGASVSGYAVIKGDTVIGENVLVSQRAYLDNAWMGKGSNAQENCYIINSRLERNCVTAHGGKIINAHLGDMIFTGFNSFLQGSESSPLKIGDGCVVMPHTIIDLEEPLEIPAGHLVWGYIRNKADLAAHSISFEEFAKVDGEVTMGRMTFRGKGGPFLDSFKKRIKRILSENGAFFDGSEGTGHAQKGKNFTFNIIQPYQDGDPRGMYPTILIQPNNGS”, the protein production entry is “not failed”.

As for “MDRFENMNAFVRVVETGSISAAADRMDIAKSVVSRRLKELEEHLGVELFHRTTRQMNLTDSGRAFYQQSVRILADVLEAEHATSQFHGRLKGHLKVAVPLSFGLMHLGAAISTFLQTHPDIEFDLDFNDRQVDLLAEGFDLAIRIANLPDSSLIARRLAPIQAVMCASPAYLERMGTPQAPEELIRHRCLVYNLVSHSDNWNVYGTTGELIKTRIIPYLKASNGEFLRDAAVDGLGIVLLPTFIVYREIQRGALIPILTGYHYAQLAAYAIYPQTRHLSQRVRAFVDFLSQRFEGMPYWDACLNQ”, the protein production entry is on record as “failed”.

In the case of “MTNWLIAYQGEPGAYSEIAALRFGEPLPCESFDDVFSAVTEQKADYAVIPIENSLGGSIHQNYDLLLRRPVVILAETFVKVEHCLLGLPGASVETATKAMSHPQALVQCHNFFATHPQIRAEAAYDTAGSAKMVAESRDKSALAIASKRAGELYGLDILKENLADEEWNITRFFCIAHENN”, the protein production result is reported as “not failed”.

Take “MDLSSKPQQQLLNSLPIAGELTVTGEMGVCYKECLKNHAANLGGHALDGCGEFMPSPTATSTDPSSLRCAACGCHRNFHRRDPSENLNFLTAPPISSPSGTESPPSRHVSSPVPCSYYTSAPPHHVILSLSSGFPGPSDQDPTVVRSENSSRGAMRKRTRTKFTPEQKIKMRAFAEKAGWKINGCDEKSVREFCNEVGIERGVLKVWMHNNKYSLLNGKIREIEHGLCLNTHSNDGDGSSSS”: the protein production result was “not failed”.

Regarding “MIYWLYLAVFFLLSALDAKEIAMQRFDKQNHKIFEILADKVSAKDNVITASGNAILLNYDVYILADKVRYDTKTKEALLEGNIKVYRGEGLLVKTDYVKLSLNEKYEIIFPFYVQDSVSGIWVSADIASGKDQKYKVKNMSTSGCSIDNPIWHVNATSGSFNMQKSHLSMWNPKIYVGDIPVLYLPYIFMSTSNKRTTGFLYPEFGTSNLDGFIYLQPFYLAPKNSWDMTFTPQIRYKRGFGLNFEARYINSKNDRFLFNARYFRNYTQYVKRYDLRNQNIYGFEFLSSSRDTLQKYFHLKSNIDNGHYIDFLYMNDLDYVRFEKVNKRITDATHMSRANYYLQTENNYYGLNIKYFLNLNKINNNRTFQSVPNLQYHKYLNSLYFRNLLYSVDYQFRNTAREIGYGYVQNALNVPVGLQFSLFKKYLSLGLWNDLQLSNVALMQSKNSFVPTIPNESREFGNFVSSNFSMYVNTDLAREYNKLFHTIQLEAIFNIPYYTFKNGLFSQNMYALSAQALNSYTSPLLRDYDYQGRLYDSVWNPSSILPSNASNKTVDLTLTQYLYGLGGQELLYFKISQLINLDDKVSPFRMPLESKIGFSPLTGLNIFGNVFYSFYQNRLEEISVNANYQRKFLSFNLSYFLKNNFSSGINSIVENLRII”, the protein production result is given as “failed”.

“MRKIQFPFCILDVIQRKGVRVLYIIIPIVVLLLIFLFAGYVKAPPNKAAIITGLSKNPRVLLGKSGFKVPFFERVDWLEVGQININVVTEDYIPTKDFINIKVDAIAQVAMEVSNNQVSAVAMRNFLNRKADDVRSMITESLQGNLREIIGTMDLKSICQDKAKFSQEVKQNAEQDMKELGIRILSFNVQNVNDKDGLIDDLGIDNRETIRKTARVAKANADRDVEVASAEAANKASEAKVAAELAIAQRNNDLEIRKAELKIGEDTKKAEADAAYEIQKQTSRKTVEIREQEADIARREKEIELQTKEAEVAEKKLDAEIRKKAEADKYAEMQNADAELYRRQKDAEAQQYEAEKEAAAIRAKGLAEAEAIRQKGLAEAEALDKKAEAMKKYGQAAILEMIVGVLPDIAKSVAEPLSAIDKVTVIGGNSDGVSDLAGNVPIIMGKVMESVKEATGIDMNEIIRAETFEGKTTKNINFTGLDQVGEEIAQGAAQSVSETLQETE”: the protein production result was “failed”.

Take “MQKKTVGLLLASAGPFLWGSSGTVAQHLFDTTTISPLWLVAVRMLVSGGLLILYGFSRRLPVMVVFHDWRATVRLIVFSLFGMAGVQLTYFMAISTGNAAMAAILQFLSPVMIIIFITATTWQLPGKVDVISVVSAIAGTVLIVTEGHTDSLALPVIAIIWGLLAAVGATIYTLMPTKLLKVYGATPIVGWSMLIGGGLVLVGTGAWHHSPQLTWVAWGQVGFVVIFGTMLAYLFFLQSLEYILPTTASVLGAIEPLAATILSVLFLHVHFNWVGLIGAIMIVGVTILQFAATRANQFVSK”: the protein production result is “failed”.

“MSLTTRHTIGARLLLAFAFSTSLLTIVSLVAWGTWSRLDYQVAELLNQSVPKYNTSYVLETRSSEIRRRIQLIVSATSKVTLNQQYQRLQEDFTAIHAALASLPQNEQQAALQQGYTELRQTTQQINDLVSARIDVDRRLALFAEQLDWLHQDIGMELSPMRQELQWQLERGGAAQPQAQVMFQTINLIQTILDGETQAFLFVDELLKAKHLTQVDNGMRVLQYRLDELSRLSQPLFTQPSSIAYQQLLEEWRNVLRLEGDFQQSLRDRVVLTQKLESTSEQLQIQLDQQHTAIADLVANADALFVQVKGQTAQLVQEGNRVLLICFGLSIGLSLLLMYYFVHKRIVGRLHRLSESLDAIIHNDLSHPITVDGKDEIGALSEQLILYGKKVEEMERTNALSLINNTQASLITCDRYGQIESANPSAMATLRLESLAQPLTLWSCFAKHVQPKVGNULLLFDKKGNLIQKGAESLTLSLGNPEKPHYLRLYLRRYSQGLHDKIIVTITDVTDQEHANRLLEQRVKEKTQSLREKNRELQAEVEERQRAEAHLKKTQGELIQAAKMAVVGQTMTSLAHELNQPLSAMSAYLFSARLALEEAPQAQLATSLDHIENLTERMGKIVNSLRHFARKNSSDESLQPVRLNSVVEQALVLVQTKAKRQQIKLINTLPDDLMVMADALSLEQVLINLIVNGCDASTTFAQPWVKLIALGTEQGMQRIAVIDSGQGFEHEVVDKLFTPFTTTKEVGLGLGLSICQSLVEKMQGRIALASNLEKGAMVILELQQDEKYRTAD”: the protein production entry was “failed”.

In the case of “MQVELIIKNLKVYNSYFKKFIKSDVLINEGKFLHIGKGYEDRLWSENIIDGEDKYIIPGLIDIHMHIESSMTIPREFSKAAIKHGVTTVVADPHEIANVFGVRGIEEFIKFKGNLDIFYGILEHHHHHH”, the protein production entry is “failed”.

Regarding “MLDPARSFDIIGDVHGCALTLERLLDALGYKRVAGVWRHPRRQALFLGDIVDRGPRIREALHIVHDMVEAGQAFCIMGNHEYNALGWVTPALPGSGKAYVREHTPRHARLIDETLTQFAQHPGDWHDFVNWFYQLPLFIDAGRFRLVHACWDPRLIEPLRQQYPDGRIDEHFIQASAVSGSFADTVCNRLLRGTDMRLPDGLTLTGGDGLTRAFFRTKFWEEDPKTYGDIVFQPDALPEEVASTPLSHSQKNALLRYDEDQPMLFVGHYWRSGRPAPIRANLACLDYSAVLYGKLVAYRLDDETRIDPHKFVWVDVDRPQANQLEHHHHHH”, the protein production entry is “not failed”.

As for “MQLSWKDIPTVAPANDLLDIVLNRTQRKTPTVIRPGFKITRIRAFYMRKVKYTGEGFVEKFEDILKGFPNINDVHPFHRDLMDTLYEKNHYKISLAAISRAKSLVEQVARDYVRLLKFGQSLFQCKQLKRAALGRMATIVKKLRDPLAYLEQVRQHIGRLPSIDPNTRTLLICGYPNVGKSSFLRCITKSDVDVQPYAFTTKSLYVGHFDYKYLRFQAIDTPGILDRPTEEMNNIEMQSIYAIAHLRSCVLYFMDLSEQCGFTIEAQVKLFHSIKPLFANKSVMVVINKTDIIRPEDLDEERAQLLESVKEVPGVEIMTSSCQLEENVMEVRNKACEKLLASRIENKLKSQSRINNVLNKIHVAQPQARDDVKRTPFIPESVKNLKKYDPEDPNRRKLARDIEAENGGAGVFNVNLKDKYLLEDDEWKNDIMPEILDGKNVYDFLDPEIAAKLQALEEEEEKLENEGFYNSDDEEEIYDGFEASEVDDIKEKAAWIRNRQKTMIAEARNRKSLKNKAIMPRSKLTKSFGKMEEHMSTLGHDMSALQDKQNRAARKNRYVERGSDVVFGDQDALTASTENGVKLRQTDRLLDGVADGSMRSKADRMAKMERRERNRHAKQGESDRHNAVSLSKHLFSGKRGVGKTDFR”, the protein production result is “failed”.

As to “MIINITILEDNESDFITLSDSIKKWAANTGILINIIWLNSYKKFIKSLPTLKCDLFFSDIELNCNNSFTGIDACKQLRESGYTGIIIFLTAFKEYVFDGYDVQAFNYLLKPINYGTINNCLDKFIHLFSREFYYYHKGNDIISIPYNDIMYIEKNGHDVILHTTSNVFVERISLNEISKRLPVFFIRAHKSYIVNINKVLSLRINELFLPNNVTIPVSRSYLTNIKKKLLEIAR”, the protein production entry was “failed”.

The values are drawn from a protein production outcome set (Wang et al. 2014).
